The values below come from US20210371518A1 (University of Texas, published 2021).

By EC50 is commonly meant the midpoint of the concentration-response curve. The term Kd denotes the free concentration of one partner at which half of the binding sites on the other are occupied at equilibrium, for simple one-to-one binding. Usually koff stands for the rate constant with which the complex falls apart. One may read the kon as a measure of how fast the partners come together.

Values joined by “and” are separate entries in the source; they are usually repeats but may differ in a detail not shown here. Identical values can stand only once. A value given as a limit tells only on which side of the number the result lay.

Test [1] deals with T1, human LILRB4 extracellular domain (ECD) recombinant protein (human, UniProt Q8NHJ6 22-259).
T1 construct: extracellular domain; also called LILRB4 ECD; LILRB4-ECD
Briefly: ELISA.

In test [2] the target is T1, human LILRB4 extracellular domain (ECD) …. Description: Octet.
In test [3] the target is LILRB1 (human (not printed on the sheet), UniProt Q8NHL6). Description: LILR reporter cells on coated antibody, GFP positive (%). How it is done:
(§1) FIGS. 41A-41M illustrate specific binding of h193 antibodies to LILRB4 protein. FIGS. 41A-41L illustrate the specificity of h193 antibodies determined by LILR reporter assays, in which LILR reporter cells are added to the plates coated with h193 antibodies. The binding of h193 antibodies to the ECD of the LILR member on the surface of the reporter cells induced GFP signal. FIG. 41M illustrates the specificity of an exemplary h193 antibody determined by ELISA. LILRA and LILRB recombinant proteins were coated on high absorption 96-well plates. Serial diluted (5-fold) mAb h193 were added to the coated/blocked plates and detected using goat anti-human IgG F(ab)2 conjugated HRP as secondary antibody.

For test [4], the target named is LILRB2 (human (not printed on the sheet), UniProt Q8N423). The test is described as above. How it is done: as §1
Test [5] deals with LILRA4 (human (not printed on the sheet), UniProt P59901). Described as above. As to the method: as §1
Test [6] deals with LILRB3 (human (not printed on the sheet), UniProt O75022). The description is as above. As to the method:
as §1

The target in test [7] is LILRA2 (human (not printed on the sheet), UniProt Q8N149). Described as above. As to the method: as §1
Test [8] has as its target LILRA1 (human (not printed on the sheet), UniProt O75019). Described as above. As to the method: as §1
The target in test [9] is LILRA5 (human (not printed on the sheet), UniProt A6NI73). The test is described as above. As to the method:
as §1

Test [10] concerns the target LILRB5 (human (not printed on the sheet), UniProt O75023). The description is as above. How it is done:
as §1

Test [11] addresses LILRA6 (human (not printed on the sheet), UniProt Q6PI73). The description is as above. As to the method:
as §1

In test [12] the target is LILRA3 (human (not printed on the sheet), UniProt Q8N6C8). The test is described as above. As to the method:
as §1

LILRA3, sequence (Q8N6C8 24-439 limits assumed): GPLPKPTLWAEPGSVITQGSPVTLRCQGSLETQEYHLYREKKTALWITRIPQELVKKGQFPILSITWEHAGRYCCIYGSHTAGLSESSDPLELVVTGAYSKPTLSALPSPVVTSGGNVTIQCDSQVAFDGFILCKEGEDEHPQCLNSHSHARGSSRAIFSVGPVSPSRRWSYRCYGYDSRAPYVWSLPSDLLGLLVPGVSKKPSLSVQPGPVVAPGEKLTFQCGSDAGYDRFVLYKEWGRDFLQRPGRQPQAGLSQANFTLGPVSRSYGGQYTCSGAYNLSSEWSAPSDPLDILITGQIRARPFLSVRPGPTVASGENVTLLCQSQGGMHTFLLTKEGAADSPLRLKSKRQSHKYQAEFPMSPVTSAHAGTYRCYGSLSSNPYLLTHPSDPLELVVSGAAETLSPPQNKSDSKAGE
LILRB3, sequence (O75022 24-443 limits assumed): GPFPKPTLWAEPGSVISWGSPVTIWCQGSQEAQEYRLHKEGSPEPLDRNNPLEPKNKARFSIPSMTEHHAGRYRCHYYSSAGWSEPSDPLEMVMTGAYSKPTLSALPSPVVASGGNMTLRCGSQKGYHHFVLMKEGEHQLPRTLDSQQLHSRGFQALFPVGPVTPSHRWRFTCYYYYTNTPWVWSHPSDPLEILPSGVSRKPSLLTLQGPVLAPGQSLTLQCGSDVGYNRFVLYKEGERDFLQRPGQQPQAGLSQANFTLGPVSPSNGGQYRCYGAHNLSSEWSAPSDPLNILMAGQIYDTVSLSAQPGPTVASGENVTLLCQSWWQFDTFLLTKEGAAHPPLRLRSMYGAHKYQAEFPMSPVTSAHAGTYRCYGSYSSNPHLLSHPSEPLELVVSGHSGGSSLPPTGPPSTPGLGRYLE
LILRA4, sequence (P59901 24-446 limits assumed): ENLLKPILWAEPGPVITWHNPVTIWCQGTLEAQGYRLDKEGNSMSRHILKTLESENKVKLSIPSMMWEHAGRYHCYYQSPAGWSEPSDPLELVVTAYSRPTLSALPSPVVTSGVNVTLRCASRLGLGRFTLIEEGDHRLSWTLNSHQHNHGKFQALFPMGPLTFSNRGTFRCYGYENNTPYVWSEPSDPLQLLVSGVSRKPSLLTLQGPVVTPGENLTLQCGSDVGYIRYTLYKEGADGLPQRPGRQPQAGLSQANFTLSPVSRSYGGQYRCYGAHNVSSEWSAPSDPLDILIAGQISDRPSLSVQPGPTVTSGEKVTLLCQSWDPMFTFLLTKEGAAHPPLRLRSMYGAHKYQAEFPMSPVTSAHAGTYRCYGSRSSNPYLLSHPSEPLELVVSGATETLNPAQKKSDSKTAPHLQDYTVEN
LILRB1, sequence (Q8NHL6 24-461 limits assumed): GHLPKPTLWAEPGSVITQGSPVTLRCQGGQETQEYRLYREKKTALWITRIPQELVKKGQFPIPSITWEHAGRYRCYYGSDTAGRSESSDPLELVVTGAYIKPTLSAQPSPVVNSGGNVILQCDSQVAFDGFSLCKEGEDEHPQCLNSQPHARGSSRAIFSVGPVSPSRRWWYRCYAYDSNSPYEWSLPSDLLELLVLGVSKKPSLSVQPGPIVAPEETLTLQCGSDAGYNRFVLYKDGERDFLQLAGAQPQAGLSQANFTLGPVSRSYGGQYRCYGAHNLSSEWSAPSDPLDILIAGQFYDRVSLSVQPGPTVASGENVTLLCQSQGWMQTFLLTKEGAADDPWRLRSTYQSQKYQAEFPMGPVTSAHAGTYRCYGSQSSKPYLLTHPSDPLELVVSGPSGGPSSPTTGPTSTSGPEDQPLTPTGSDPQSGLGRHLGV
LILRA6, sequence (Q6PI73 24-447 limits assumed): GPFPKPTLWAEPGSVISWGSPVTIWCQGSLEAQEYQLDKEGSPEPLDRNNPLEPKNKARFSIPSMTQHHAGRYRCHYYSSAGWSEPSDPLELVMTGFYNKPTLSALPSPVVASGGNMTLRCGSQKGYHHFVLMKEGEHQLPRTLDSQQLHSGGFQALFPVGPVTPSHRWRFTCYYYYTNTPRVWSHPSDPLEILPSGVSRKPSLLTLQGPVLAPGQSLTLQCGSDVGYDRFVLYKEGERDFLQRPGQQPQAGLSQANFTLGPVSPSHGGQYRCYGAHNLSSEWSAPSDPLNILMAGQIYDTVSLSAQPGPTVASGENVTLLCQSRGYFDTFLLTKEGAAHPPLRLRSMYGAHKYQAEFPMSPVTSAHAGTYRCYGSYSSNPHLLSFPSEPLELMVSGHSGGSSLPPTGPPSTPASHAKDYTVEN
LILRA5, sequence (A6NI73 42-268 limits assumed): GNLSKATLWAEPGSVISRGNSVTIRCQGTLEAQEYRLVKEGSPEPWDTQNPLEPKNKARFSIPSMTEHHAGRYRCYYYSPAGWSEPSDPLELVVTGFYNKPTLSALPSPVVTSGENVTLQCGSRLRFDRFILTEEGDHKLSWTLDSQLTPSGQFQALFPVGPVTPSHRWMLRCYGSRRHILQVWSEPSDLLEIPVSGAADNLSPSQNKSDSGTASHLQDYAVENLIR
LILRB2, sequence (Q8N423 22-460 limits assumed): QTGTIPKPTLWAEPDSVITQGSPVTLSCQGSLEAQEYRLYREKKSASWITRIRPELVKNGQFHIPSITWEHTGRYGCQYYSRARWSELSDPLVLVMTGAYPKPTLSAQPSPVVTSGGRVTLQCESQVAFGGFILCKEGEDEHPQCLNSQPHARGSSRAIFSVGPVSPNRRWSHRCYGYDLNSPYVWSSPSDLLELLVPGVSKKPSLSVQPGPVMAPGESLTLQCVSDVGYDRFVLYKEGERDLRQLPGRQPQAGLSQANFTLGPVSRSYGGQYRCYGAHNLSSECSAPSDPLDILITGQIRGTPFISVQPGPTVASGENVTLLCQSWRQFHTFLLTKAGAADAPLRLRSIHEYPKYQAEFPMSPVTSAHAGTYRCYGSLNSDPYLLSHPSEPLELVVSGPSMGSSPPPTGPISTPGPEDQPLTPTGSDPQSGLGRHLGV
LILRA2, sequence (Q8N149 24-449 limits assumed): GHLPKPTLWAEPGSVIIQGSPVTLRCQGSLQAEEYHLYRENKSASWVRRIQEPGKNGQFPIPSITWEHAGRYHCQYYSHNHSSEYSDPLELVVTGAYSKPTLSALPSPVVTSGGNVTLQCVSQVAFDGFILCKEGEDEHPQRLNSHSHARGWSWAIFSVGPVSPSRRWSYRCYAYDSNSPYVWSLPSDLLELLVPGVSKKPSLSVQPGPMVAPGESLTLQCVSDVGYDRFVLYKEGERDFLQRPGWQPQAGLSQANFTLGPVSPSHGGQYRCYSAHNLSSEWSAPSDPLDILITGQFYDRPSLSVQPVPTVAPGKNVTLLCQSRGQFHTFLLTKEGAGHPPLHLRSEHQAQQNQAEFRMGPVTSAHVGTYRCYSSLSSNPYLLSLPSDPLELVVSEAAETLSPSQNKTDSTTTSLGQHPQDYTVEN
LILRA1, sequence (O75019 17-461 limits assumed): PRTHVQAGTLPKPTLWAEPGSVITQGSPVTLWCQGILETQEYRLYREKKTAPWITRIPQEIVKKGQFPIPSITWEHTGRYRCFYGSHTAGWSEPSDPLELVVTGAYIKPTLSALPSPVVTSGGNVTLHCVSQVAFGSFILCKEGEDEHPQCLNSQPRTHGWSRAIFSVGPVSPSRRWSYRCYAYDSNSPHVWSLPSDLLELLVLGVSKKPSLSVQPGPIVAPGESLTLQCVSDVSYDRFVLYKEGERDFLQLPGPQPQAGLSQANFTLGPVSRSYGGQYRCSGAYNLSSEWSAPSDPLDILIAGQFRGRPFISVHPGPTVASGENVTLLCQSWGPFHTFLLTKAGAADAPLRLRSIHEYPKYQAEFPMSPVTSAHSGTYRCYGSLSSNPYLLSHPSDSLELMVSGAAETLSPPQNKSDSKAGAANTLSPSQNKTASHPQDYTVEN
LILRB5, sequence (O75023 24-458 limits assumed): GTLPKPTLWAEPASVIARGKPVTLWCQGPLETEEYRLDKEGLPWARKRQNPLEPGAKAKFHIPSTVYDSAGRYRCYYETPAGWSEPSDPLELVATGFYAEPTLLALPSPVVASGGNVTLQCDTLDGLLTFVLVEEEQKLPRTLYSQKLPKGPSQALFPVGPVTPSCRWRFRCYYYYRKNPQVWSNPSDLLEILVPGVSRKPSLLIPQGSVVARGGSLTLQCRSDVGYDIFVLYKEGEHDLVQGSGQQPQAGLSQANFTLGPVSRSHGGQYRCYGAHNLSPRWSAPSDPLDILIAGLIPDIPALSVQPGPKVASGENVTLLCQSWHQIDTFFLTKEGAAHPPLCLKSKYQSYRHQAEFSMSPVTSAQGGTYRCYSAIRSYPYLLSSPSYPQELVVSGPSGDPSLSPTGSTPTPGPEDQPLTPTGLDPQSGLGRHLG

B1: h193 antibody No. 19 (h193-H3 / h193-K1) (antibody, V domains shown)
VH: EVQLVESGGGLVQPGGSLRLSCAASGFSLSSSYWISWVRQAPGKGLEWIGSIDSGSVGITYYATWAKGRFTISRDNSKNTLYLQMNSLRAEDTAVYYCARHGDNWALDLWGQGTLVTVSS
VL: DIQMTQSPSTLSASVGDRVTITCQASQSINSWLAWYQQKPGKAPKLLIYKASTLASGVPSRFSGSGSGTEFTLTISSLQPDDFATYYCQHGYIRGDLDNVFGGGTKVEIK
For B1, the EC50 in test [1] was 0.294 µg/mL and 1.96 nM. Moreover, the Kd in [2] is 2.03 nM. Moreover, the koff in test [2] amounted to 0.000294 s⁻¹. In [2], the kon was found to be 145000 M⁻¹ s⁻¹. Further, the binding result in test [3], in [4], in [5], in test [6], in test [7] and in test [8] was “no binding” each time. Besides, the binding result in test [9], in [10], in [11] and in [12] was “no binding” in each case.

B2: h193 antibody No. 28 (h193-H5 / h193-K2) (antibody, V domains shown)
VH: EVQLVESGGGLVQPGGSLRLSCAASGFSLSSSYWISWVRQAPGKGLEWIGVIDSGSVGITYYATWAKGRFTISRDNSKNTLYLQMNSLRAEDTAVYYCARHGDNWALDLWGQGTLVTVSS
VL: DLVMTQSPSTLSASVGDRVTITCQASQSINSWLAWYQQKPGKPPKLLIYKASTLASGVSSRFSGSGSGTEFTLTISSLQPDDVATYYCQHGYIRGDLDNVFGGGTKVEIK
As to B2, the binding result in test [3], in test [4], in [5], in test [6], in test [7] and in test [8] was “no binding” each time. For the same molecule, the binding result in test [9], in test [10], in test [11] and in test [12] was “no binding” throughout.

B3: h193 antibody No. 24 (h193-H4 / h193-K2) (antibody, V domains shown)
VH: EVQLVESGGGLVQPGGSLRLSCAASGFSLSSSYWISWVRQAPGKGLEWVSSIDSGSVGITYYATWAKGRFTISRDNSKNTLYLQMNSLRAEDTAVYYCARHGDNWALDLWGQGTLVTVSS
VL: DLVMTQSPSTLSASVGDRVTITCQASQSINSWLAWYQQKPGKPPKLLIYKASTLASGVSSRFSGSGSGTEFTLTISSLQPDDVATYYCQHGYIRGDLDNVFGGGTKVEIK
With B3, the EC50 in [1] was 0.467 µg/mL and 3.11 nM. In addition, the Kd in [2] came out at 4.41 nM. For the same molecule, the koff in test [2] is 0.000595 s⁻¹. Moreover, the kon in [2] is 135000 M⁻¹ s⁻¹. Also, the binding result in [3], in test [4], in [5], in test [6], in test [7] and in test [8] was “no binding” in each case. Besides, the binding result in test [9], in [10], in [11] and in [12] was “no binding” throughout.

B4: h193 antibody No. 23 (h193-H4 / h193-K1) (antibody, V domains shown)
VH: EVQLVESGGGLVQPGGSLRLSCAASGFSLSSSYWISWVRQAPGKGLEWVSSIDSGSVGITYYATWAKGRFTISRDNSKNTLYLQMNSLRAEDTAVYYCARHGDNWALDLWGQGTLVTVSS
VL: DIQMTQSPSTLSASVGDRVTITCQASQSINSWLAWYQQKPGKAPKLLIYKASTLASGVPSRFSGSGSGTEFTLTISSLQPDDFATYYCQHGYIRGDLDNVFGGGTKVEIK
In the case of B4, the EC50 in test [1] is 0.461 µg/mL and 3.07 nM. Further, in test [2], the Kd was determined as 5.83 nM. In [2], the koff turned out to be 0.000731 s⁻¹. Also, the kon in test [2] was 125000 M⁻¹ s⁻¹. The binding result in [3], in test [4], in test [5], in test [6], in test [7] and in [8] was “no binding” throughout. The binding result in test [9], in [10], in [11] and in test [12] was “no binding” throughout.

B5: h193 antibody No. 20 (h193-H3 / h193-K2) (antibody, V domains shown)
VH: EVQLVESGGGLVQPGGSLRLSCAASGFSLSSSYWISWVRQAPGKGLEWIGSIDSGSVGITYYATWAKGRFTISRDNSKNTLYLQMNSLRAEDTAVYYCARHGDNWALDLWGQGTLVTVSS
VL: DLVMTQSPSTLSASVGDRVTITCQASQSINSWLAWYQQKPGKPPKLLIYKASTLASGVSSRFSGSGSGTEFTLTISSLQPDDVATYYCQHGYIRGDLDNVFGGGTKVEIK
As to B5, in test [1], the EC50 was 0.272 µg/mL and 1.81 nM. The Kd in test [2] was found to be 1.67 nM. Also, the koff in [2] was found to be 0.00025 s⁻¹. Also, the kon in test [2] stood at 150000 M⁻¹ s⁻¹. Moreover, the binding result in test [3], in test [4], in test [5], in [6], in test [7] and in [8] was “no binding” each time. Besides, the binding result in test [9], in test [10], in [11] and in test [12] was “no binding” throughout.

B6: h193 antibody No. 27 (h193-H5 / h193-K1) (antibody, V domains shown)
VH: EVQLVESGGGLVQPGGSLRLSCAASGFSLSSSYWISWVRQAPGKGLEWIGVIDSGSVGITYYATWAKGRFTISRDNSKNTLYLQMNSLRAEDTAVYYCARHGDNWALDLWGQGTLVTVSS
VL: DIQMTQSPSTLSASVGDRVTITCQASQSINSWLAWYQQKPGKAPKLLIYKASTLASGVPSRFSGSGSGTEFTLTISSLQPDDFATYYCQHGYIRGDLDNVFGGGTKVEIK
Turning to B6, in [1], the EC50 was greater than 6 nM. The binding result in [3], in test [4], in test [5], in test [6], in test [7] and in test [8] was “no binding” in each case. Further, the binding result in test [9], in test [10], in [11] and in test [12] was “no binding” in each case.

B7: h193 antibody No. 31 (h193-H6 / h193-K1) (antibody, V domains shown)
VH: EVQLVESGGGLVQPGGSLRLSCAASGFSLSSSYWISWVRQAPGKGLEWIGSIDSGSVGITYYATSAKGRFTISRDNSKNTLYLQMNSLRAEDTAVYYCARHGDNWALDLWGQGTLVTVSS
VL: DIQMTQSPSTLSASVGDRVTITCQASQSINSWLAWYQQKPGKAPKLLIYKASTLASGVPSRFSGSGSGTEFTLTISSLQPDDFATYYCQHGYIRGDLDNVFGGGTKVEIK
Regarding B7, the EC50 in [1] is 0.314 µg/mL and 2.09 nM. Further, the Kd in test [2] was 2.61 nM. In addition, the koff in [2] stood at 0.000376 s⁻¹. Further, the kon in test [2] was 144000 M⁻¹ s⁻¹. The binding result in test [3], in [4], in [5], in [6], in test [7] and in test [8] was “no binding” each time. Moreover, the binding result in test [9], in test [10], in test [11] and in test [12] was “no binding” each time.
